Patent US20160333418A1 (SANTA MARIA BIOTHERAPEUTICS, published 2016)
Residue numbers refer to the chain shown, from its start. Names may count otherwise.

Assays:
[1] = target: GDF-11 (Homo sapiens (Human)) (UniProt O95390); experiment: cell-based or functional assay
myostatin [2] = target: T1, myostatin (human, UniProt O14793 267-375); experiment: cell-based or functional assay
T1 sequence: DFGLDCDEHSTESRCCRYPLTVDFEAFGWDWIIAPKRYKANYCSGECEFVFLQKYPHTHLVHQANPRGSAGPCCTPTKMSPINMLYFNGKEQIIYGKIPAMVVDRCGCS

activin A [3] = target: T2, activin A (human, UniProt P08476 311-426); experiment: cell-based or functional assay
T2 sequence: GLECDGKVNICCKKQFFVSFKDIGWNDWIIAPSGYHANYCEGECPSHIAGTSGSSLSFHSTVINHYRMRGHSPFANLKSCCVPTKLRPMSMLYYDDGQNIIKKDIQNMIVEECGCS

[4] = target: GDF-11 (Homo sapiens (Human)) (UniProt O95390); experiment: KinExA solution equilibrium binding, ligand-coated beads, room temperature
myostatin [5] = target: T1, myostatin; experiment: as above
Method: (§1) Solution-based equilibrium-binding assays using KinExA™ technology (Sapidyne Instruments, Inc.) were used to determine the dissociation equilibrium (KD) of ligand binding to ActRIIB-Fc polypeptides. UltraLink Biosupport beads (Pierce) was pre-coated with about 100 μg/m1 each of myostatin, GDF-11, and activin A overnight, and then blocked with BSA. 1 pM and 3 pM of ActRIIB-Fc (E28W) (SEQ ID NO: 21) and svActRIIB-Fc (E28W, S44T) (SEQ ID NO: 10) samples were incubated with various concentrations (0.7 fM to 160 pM) of myostatin, activin A, and GDF-11 respectively in sample buffer at room temperature for 8 hours before being run through the ligand-coated beads. The amount of the bead-bound soluble receptor was quantified by fluorescent (Cy5) labeled goat anti-human-Fc antibody at 1 mg/ml in superblock. The binding signal is proportional to the concentration of free soluble receptor at equilibrium with a given myostatin, activin A, or GDF-11 concentration. KD was obtained from the nonlinear regression of the competition curves using a dual-curve one-site homogeneous binding model provided in the KinEx A™ software (Sapidyne Instruments, Inc.).

activin A [6] = target: T2, activin A; experiment: as above
Method: as §1

B1: ActRIIB-Fc (E28W) (Fc fusion)
chain: ETRWCIYYNANWELERTNQSGLERCEGEQDKRLHCYASWRNSSGTIELVKKGCWLDDFNCYDRQECVATEENPQVYFCCCEGNFCNERFTHLPEAGGPEVTYEPPPTAPTGGGGSVECPPCPAPPVAGPSVFLFPPKPKDTLMISRTPEVTCVVVDVSHEDPEVQFNWYVDGVEVHNAKTKPREEQFNSTFRVVSVLTVVHQDWLNGKEYKCKVSNKGLPAPIEKTISKTKGQPREPQVYTLPPSREEMTKNQVSLTCLVKGFYPSDIAVEWESNGQPENNYKTTPPMLDSDGSFFLYSKLTVDKSRWQQGNVFSCSVMHEALHNHYTQKSLSLSPGK
notes: also called ActRIIB-IgG2Fc (E28W); ActRIIB-IgG Fc (E28W)
- IC50, luciferase activity in C2C12/pMARE reporter cells, 4 nM ligand [1]: 2.4 nM
- IC50, luciferase activity in C2C12/pMARE reporter cells, 4 nM ligand (myostatin [2]): 0.95 nM
- IC50, luciferase activity in C2C12/pMARE reporter cells, 4 nM ligand (activin A [3]): 3.2 nM
- Kd [4]: 0.1 pM
- Kd (myostatin [5]): 0.1 pM
- Kd (activin A [6]): 0.2 pM

B2: svActRIIB-Fc (E28W, S44T) (Fc fusion)
chain: B1 chain with S20T
notes: also called svActRIIB-IgG2Fc (E28W, S44T); svActRIIB-IgG Fc (E28W, S44T)
- IC50, luciferase activity in C2C12/pMARE reporter cells, 4 nM ligand [1]: 2.4 nM
- IC50, luciferase activity in C2C12/pMARE reporter cells, 4 nM ligand (myostatin [2]): 1.07 nM
- IC50, luciferase activity in C2C12/pMARE reporter cells, 4 nM ligand (activin A [3]): 3.6 nM
- Kd [4]: 0.1 pM
- Kd (myostatin [5]): 0.1 pM
- Kd (activin A [6]): 0.1 pM
